The results in this text go back to patent publication US20220251235A1 (published 2022).

In experiment [1] the target is T1, MAGEA10 peptide on HLA-A*02:04 (human).
T1 peptide: SLLKFLAKV
The experiment in a line: cytokine release.

Another experiment has as its target T2, peptide on HLA-A*02:01 (human).
T2 peptide: KLYGLDWAEL
The experiment in a line: cytokine release.

The target of experiment [2] is T3, MAGEA10 peptide on HLA-A*02:01 (human).
T3 peptide: SLLKFLAKV
Description: multimer staining.

B1: MAGE-A10^SLL-TCR (TCR, V domains shown)
Valpha: DQQVKQNSPSLSVQEGRISILNCDYTNSMFDYFLWYKKYPAEGPTFLISISSIKDKNEDGRFTVFLNKSAKHLSLHIVPSQPGDSAVYFCAANSNSGYALNFGKGTSLLVTP
Vbeta: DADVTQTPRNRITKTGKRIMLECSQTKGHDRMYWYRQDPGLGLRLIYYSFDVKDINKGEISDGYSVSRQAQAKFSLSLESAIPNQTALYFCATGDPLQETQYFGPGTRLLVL
Turning to B1, the binding result is “recognises” in experiment [1], “no recognition” in the experiment with peptide on HLA-A*02:01 and “recognises” in experiment [2].
